Laboratory results: article PMC4841237, “Structure and stability of recombinant bovine odorant-binding protein: II. Unfolding of the monomeric forms” (PeerJ, 2016)

Target: the molecule itself
Experiment: SEC; gel filtration on Superdex-75 PC 3.2/30, 20 mM Na-phosphate pH 7.8, without GdnHCl and at low GdnHCl (below 1.5-2 M), with or without 10 mM OCT; protein 0.1-0.2 mg/ml; monomer to dimer

B1: recombinant bovine odorant-binding protein (natural protein)
chain: AQEEEAEQNLSELSGPWRTVYIGSTNPEKIQENGPFRTYFRELVFDDEKGTVDFYFSVKRDGKWKNVHVKATKQDDGTYVADYEGQNVFKIVSLSRTHLVAHNINVDKHGQTTELTELFVKLNVEDEDLEKFWKLTEDKGIDKKNVVNFLENEDHPHPE
notes: In some samples 10 mM 1-octen-3-ol (OCT) was present; also called bOBP; bOBPwt; source: E. coli BL21(DE3), plasmid pT7-7-bOBP, purified (Ni+-agarose, HisGraviTrap)
- stoichiometry N: 2
